# Measured values reported in US20170173114A1, “METHODS AND COMPOSITIONS FOR INDUCTION OF UCP1 EXPRESSION” (Joslin Diabetes Center, Inc., priority 2014, published 2017).
# “Also recorded” adds a separate entry of the source.
# B1: FGF6: fibroblast growth factor 6; recombinant human FGF from R&D Systems, or mouse FGF6 cDNA overexpressed by lentiviral vector (protein)
# chain: KRQRRLYCNVGIGFHLQVLPDGRISGTHEENPYSLLEISTVERGVVSLFGVRSALFVAMNSKGRLYATPSFQEECKFRETLLPNNYNAYESDLYQGTYIALSKYGRVKRGSKVSPIMTVTHFLPRI
# Tests used:
# [1] = tested on: 3T3-F442A white preadipocytes; test: Seahorse Bioanalyzer cellular respiration in 3T3-F442A white preadipocytes; type: cell-based; conditions: constitutive overexpression of FGF6
# From the text: The Seahorse XF24 (Seahorse Bioscience, http://www.seahorsebio.com/) was utilized for respirometry to measure oxygen consumption rates (OCR; indicating oxidative phosphorylation) and extracellular acidification rates (ECAR; indicating extracellular pH) in mature brown adipocytes. The cell plates and assay cartridges for the Seahorse XF24 have four ports allowing for drug delivery to individual wells during measurement of the metabolic parameters. For a typical bioenergetic profile, cells are first treated with oligomycin to block ATP synthase, FCCP as an uncoupler and Rotenone to block Complex 1 of the ETC (all from Sigma). Example 2 provides additional details regarding the general method. Data provided in the Figures (e.g., FIG. 27) based on the Seahorse Bioanalyzer includes a bottom horizontal line which represents the baseline of the mechanics of the machine and is not related to the experiment.
# To assess FGF6's role in the regulation of mitochondrial activity, FGF6 was stably expressed in WT-1 brown preadipocytes and 3T3-F442A white preadipocytes. Stable cells were generated by viral infection followed by drug selection.
# A profile of cellular respiration was developed by utilizing well-characterized mitochondrial toxins, as described in FIG. 5B. First, basal respiration was measured, followed by injection of oligomycin (an inhibitor of ATP synthase which allows measurement of ATP turnover). Then, the uncoupler FCCP (carbonilcyanide p-triflouromethoxyphenylhydrazone) was injected to measure respiratory capacity, followed by the complex 1 inhibitor rotenone (which prevents electron transfer activity and leaves only non-mitochondrial activity to be measured).
# As mentioned above, 3T3-F442A white preadipocytes were also used to determine FGF6's role in mitochondrial activity regulation.
# [2] = tested on: WT-1 brown preadipocytes; test: Mitochondrial DNA copy number and mitochondrial gene expression in brown preadipocytes; type: cell-based, murine; conditions: 24 hours; vs control
# Description: In order to determine whether the marked changes in mitochondrial respiration observed in preadipocytes treated with FGF6 is due to increased mitochondrial mass and/or changes in mitochondrial dynamics, in addition to increased UCP1 expression, mitochondrial DNA (mtDNA) copy number (as the ratio of CoxII (mtDNA) over β-globin (nuclear DNA)) and expression of genes involved in mitochondrial replication (e.g., mTFA, Nrf1 and Nrf2) in brown preadipocytes was measured.
# [3] = tested on: preadipocytes; test: Transmission electron microscopy of mitochondria in preadipocytes; type: cell-based; conditions: preadipocytes overexpressing FGF6 vs control
# Description: To determine if FGF6 treatment affects the overall health condition of mitochondria, mitochondrial attributes such as mitochondria biogenesis, mass, morphology and dynamics were measured. Mitochondrial mass was measured by a cell-permeable dye (MitoTracker Green FM) and by transmission electron microscopy (EM). MitoTracker Green FM accumulates in mitochondria in live cells irrespective of mitochondrial membrane potential. The intensity of fluorescence was visualized by microscopy and quantitated by flow cytometry. Mitochondrial morphology and ultra-structure (such as cristae and granules) was assessed by EM.
# [4] = tested on: UCP1 and PTGS2; test: UCP1 and PTGS2 mRNA in WT-1 cells undergoing adipocyte differentiation; type: cell-based, murine; conditions: after induction media; 200 ng/mL FGF or 3.3 nM BMP7, 2 days
# Description: In a separate experiment investigating the ability of FGF proteins to induce UCP1 expression in cells undergoing adipocyte differentiation, WT-1 preadipocyte cells were differentiated by culturing in growth media supplemented with insulin (20 nM) and triiodothyronine (T3, 1 nM) for 3 days, followed by incubation in an induction media (growth medium supplemented 20 nM insulin, 1 nM T3, 0.5 mM isobutyl-methylxanthine, 5 μM dexamethasone) for 2 days. The cell were then exposed to BMP7 (3.3 nM) or 200 ng/mL of FGF2, FGF6 or, FGF9 in growth media supplemented with insulin (20 nM) and triodothyronine (T3, 1 nM) for 2 additional days. Cells were harvested and UCP1 and PTGS2 mRNA expression levels were determined according to the quantitative RT-PCR assay described above. Experiments were performed in triplicate and the data presented as mean+/−SEM.
# [5] = tested on: WT-1 brown preadipocytes; test: 2-deoxy-[3H]glucose uptake in WT-1 brown preadipocytes; type: cell-based, murine; conditions: FGF6 overexpressing vs control and EGF
# Description: The following glucose uptake assay was used to determine whether FGF6 could impact cellular glucose uptake. Specifically, glucose uptake was monitored in WT-1 brown preadipocytes and 3T3-F442A white preadipocytes in the presence or absence of FGF6. After serum starvation in DMEM/H medium containing 1% of BSA for 2-3 h, cells were washed with HEPES buffer and then incubated with or without 100 nM insulin for 30 min in DMEM/H medium containing 1% of BSA. Glucose transport was determined by the addition of 2-deoxy-[3H]glucose (0.1 mM, 0.5 μCi/mL; PerkinElmer Life and Analytical Science, Waltham, Mass.). After 5 minutes of incubation, the reaction was stopped by ice-cold PBS and cells were washed twice with ice-cold PBS. Cells were then lysed in 0.1% SDS, and glucose uptake was assessed in 4 mL of scintillant using Beckman LS6500 scintillation counter (Beckman Coulter, Indianapolis Ind.). Nonspecific 2-deoxy-[3H]glucose uptake was measured in the presence of cytochalasin B (20 μM) and was subtracted from the total uptake to get specific glucose uptake. Results were expressed as the mean±s.e.m. of the indicated number of experiments. The protein content was determined by the Bradford method.
# The role of PGs in regulating mitochondrial function and cellular glucose uptake was also assessed. […]
# [6] = tested on: LDHA, PDK1, PKM2; test: LDHA, PDK1 and PKM2 mRNA expression in WT-1 cells; type: cell-based, murine; conditions: WT-1, 24 hours; vs vehicle
# Description: To test the role of specific prostaglandins (PGs) in activating UCP1 expression, WT-1 brown adipocytes were pretreated with PGE2, PGI2 and FGF6 for 24 hours. mRNA expression levels of UCP1, PTGS2, LDHA, PDK1 and PKM2 were then measured.
# [7] = Insulin tolerance test in Chow or high fat diet mice; type: in vivo, C57BL6 mice; conditions: Chow or HFD mice, 0.5 mg/kg FGF6 s.c. and 1.5 U insulin per kg
# Description: In addition to testing the impact of FGF6 on glucose tolerance, an insulin tolerance test was also performed using Chow fed and Obese (HFD) mice. Animals were fasted for two hours before receiving an intraperitoneal dose of 1.5 IU of recombinant human insulin (Humalog; Eli Lilly and Company, Indianapolis, Ind.). Blood samples were collected from the tail vein for measurement of blood glucose levels using a glucometer before and 15, 30, and 60 min after injections of FGF6 and the buffer control.
molecule,measurement,setting,value
B1,gain of ATP turnover,[1],5 fold
same,gain of proton leak,[1],5 fold
same,increase in cellular respiration,[1],5-10 fold
same,increase of basal respiration,[1],~7 fold
same,increase of maximal respiratory capacity,[1],~6 fold
same,expression of nuclear-encoded mitochondrial genes,[2],not significantly altered
same,mitochondrial DNA copy number (CoxII over β-globin),[2],no significant difference; also recorded: does not alter
same,number of mitochondria by transmission electron microscopy,[3],fewer mitochondria
same,shape of mitochondria by transmission electron microscopy,[3],longer shape
same,PTGS2 mRNA expression in cells undergoing adipocyte differentiation,[4],able to induce
same,UCP1 mRNA expression in cells undergoing adipocyte differentiation,[4],able to induce
same,glucose uptake level in WT-1 (brown) preadipocytes,[5],increased
same,LDHA mRNA expression,[6],increase
same,PDK1 mRNA expression,[6],increase
same,PKM2 mRNA expression,[6],increase
same,glucose levels in insulin tolerance test (insulin sensitivity),[7],lower levels of glucose; also recorded: enhanced insulin sensitivity
